Experimental findings from US20170334976A1 (ANNEXON, published 2017) are described below.

Assay [1] addresses T1, human complement factor C1q (human, UniProt P02745 23-245; P02746 28-253; P02747 29-245).
T1 construct: The immunogen was C1q purified from human plasma (Complement Technology A-099); In the CH50 assays the C1q is the one present in human serum; Observed mass about 460 kDa; also called human C1q; hC1q
Briefly: OCTET biosensor, C1q immobilized; human C1q. On the procedure: (§1) C1q-antibody interactions were measured using an OCTET™ System according to standard protocols and manufacturer's instructions. Briefly, human and mouse C1q proteins were immobilized separately on a biosensor at three concentrations (3 nM, 1.0 nM, and 0.33 nM).

Assay [2] deals with T2, mouse C1q (mouse, UniProt P14106 26-253).
T2 construct: In the CH50 assay the C1q is the one present in C57Bl/6 mouse serum; also called mouse C1q protein
The assay is described as follows: OCTET biosensor, C1q immobilized, full length antibody in solution. On the procedure: as §1

For assay [3], the target named is T1, human complement factor C1q. The assay is described as above. The method, then: as §1
The target of assay [4] is T2, mouse C1q. Briefly: OCTET biosensor, C1q immobilized; mouse C1q. On the procedure:
as §1

Where only a bound is given, the exact number is not on record here.

T1 sequence (P02745 23-245 limits assumed, chain 1 of 3): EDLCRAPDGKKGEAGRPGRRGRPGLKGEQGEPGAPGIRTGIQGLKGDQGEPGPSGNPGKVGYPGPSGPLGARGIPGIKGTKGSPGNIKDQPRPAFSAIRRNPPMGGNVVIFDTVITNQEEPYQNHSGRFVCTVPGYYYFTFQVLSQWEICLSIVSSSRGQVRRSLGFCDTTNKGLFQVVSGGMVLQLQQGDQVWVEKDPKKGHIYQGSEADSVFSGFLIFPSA
T1 sequence (P02746 28-253 limits assumed, chain 2 of 3): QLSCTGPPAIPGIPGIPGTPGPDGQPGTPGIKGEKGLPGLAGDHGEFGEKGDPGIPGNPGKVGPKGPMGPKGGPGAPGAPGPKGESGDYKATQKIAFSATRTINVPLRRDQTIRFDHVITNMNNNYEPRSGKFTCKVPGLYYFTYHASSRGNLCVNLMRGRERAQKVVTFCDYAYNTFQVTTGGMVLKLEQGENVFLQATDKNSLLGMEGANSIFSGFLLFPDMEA
T1 sequence (P02747 29-245 limits assumed, chain 3 of 3): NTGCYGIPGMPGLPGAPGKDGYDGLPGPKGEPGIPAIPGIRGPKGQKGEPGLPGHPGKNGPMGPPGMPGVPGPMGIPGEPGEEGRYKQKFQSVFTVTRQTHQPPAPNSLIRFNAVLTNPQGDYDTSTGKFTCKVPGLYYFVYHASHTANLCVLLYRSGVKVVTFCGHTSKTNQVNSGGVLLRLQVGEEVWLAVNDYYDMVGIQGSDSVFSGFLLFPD
T2 sequence (chain, as listed by the source, chain 1 of 3): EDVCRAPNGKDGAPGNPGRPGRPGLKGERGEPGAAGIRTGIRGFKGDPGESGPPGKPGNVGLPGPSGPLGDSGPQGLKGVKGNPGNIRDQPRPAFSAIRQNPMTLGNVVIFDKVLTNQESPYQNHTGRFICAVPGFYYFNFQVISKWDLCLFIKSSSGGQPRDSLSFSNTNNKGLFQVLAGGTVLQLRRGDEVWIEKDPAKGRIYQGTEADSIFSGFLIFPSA
T2 sequence (P14106 26-253, chain 2 of 3): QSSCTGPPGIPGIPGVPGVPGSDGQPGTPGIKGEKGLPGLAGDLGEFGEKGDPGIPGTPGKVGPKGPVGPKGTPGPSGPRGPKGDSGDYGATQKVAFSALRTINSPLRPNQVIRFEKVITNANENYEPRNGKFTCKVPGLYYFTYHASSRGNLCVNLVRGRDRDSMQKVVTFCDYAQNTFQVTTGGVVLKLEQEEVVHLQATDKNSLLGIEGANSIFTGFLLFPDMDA
T2 sequence (chain, as listed by the source, chain 3 of 3): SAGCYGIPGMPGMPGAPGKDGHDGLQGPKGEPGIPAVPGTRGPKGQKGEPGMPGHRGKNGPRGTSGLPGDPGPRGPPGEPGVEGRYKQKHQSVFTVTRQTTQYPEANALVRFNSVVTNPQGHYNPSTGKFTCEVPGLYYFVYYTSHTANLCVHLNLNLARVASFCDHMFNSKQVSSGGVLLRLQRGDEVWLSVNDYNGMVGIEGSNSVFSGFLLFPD

B1: murine anti-human C1q monoclonal antibody M1 (antibody, mouse IgG1, V domains shown)
VH: QVQLQQPGAELVKPGASVKLSCKSSGYHFTSYWMHWVKQRPGQGLEWIGVIHPNSGSINYNEKFESKATLTVDKSSSTAYMQLSSLTSEDSAVYYCAGERDSTEVLPMDYWGQGTSVTVSS
VL: DVQITQSPSYLAASPGETITINCRASKSINKYLAWYQEKPGKTNKLLIYSGSTLQSGIPSRFSGSGSGTDFTLTISSLEPEDFAMYYCQQHNEYPLTFGAGTKLELK
notes: Tested as full length hybridoma antibody; Isotype mouse IgG1, kappa; also called ANN-005; anti-C1q antibody M1
B1: the equilibrium dissociation constant (Kd) (commonly the concentration at which binding is half-saturated) in assay [1] is less than 0.1 nM; with mouse C1q [2], 0.0323 nM; in assay [3], 0.0128 nM; in the assay with mouse C1q [4], less than 0.1 nM.
